Reference: article PMC3778244 (Genes & Development, 2013)

T1: Ccq1 N-terminal domain (Ccq1-NTD; residues 2-439) (S. pombe, UniProt Q10432 2-439)
T1 sequence: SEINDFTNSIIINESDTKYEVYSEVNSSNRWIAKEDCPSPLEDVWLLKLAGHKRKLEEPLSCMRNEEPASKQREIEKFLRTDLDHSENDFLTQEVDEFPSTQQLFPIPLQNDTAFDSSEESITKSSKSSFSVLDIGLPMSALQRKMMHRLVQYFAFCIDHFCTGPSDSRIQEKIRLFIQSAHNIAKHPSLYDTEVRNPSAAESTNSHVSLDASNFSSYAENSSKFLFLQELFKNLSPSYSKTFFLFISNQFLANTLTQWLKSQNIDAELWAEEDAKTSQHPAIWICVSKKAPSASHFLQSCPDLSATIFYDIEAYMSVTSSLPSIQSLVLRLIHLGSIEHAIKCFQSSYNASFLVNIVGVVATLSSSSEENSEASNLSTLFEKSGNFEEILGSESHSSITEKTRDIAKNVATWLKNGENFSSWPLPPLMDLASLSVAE

T2: Poz1 (recombinant) (S. pombe, UniProt O13852 1-249)
T2 sequence: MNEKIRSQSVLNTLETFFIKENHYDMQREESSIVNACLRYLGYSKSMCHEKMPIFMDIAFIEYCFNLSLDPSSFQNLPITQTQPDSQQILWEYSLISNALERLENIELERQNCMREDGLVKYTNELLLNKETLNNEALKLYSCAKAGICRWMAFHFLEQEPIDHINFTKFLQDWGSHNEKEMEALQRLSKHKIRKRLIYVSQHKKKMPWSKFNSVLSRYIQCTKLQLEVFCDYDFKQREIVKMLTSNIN


How the values were obtained:
[1] = biological target: T1, Ccq1 N-terminal domain (Ccq1-NTD; …); experiment: pull-down
Poz1 (recombinant) = biological target: T2, Poz1 (recombinant); experiment: pull-down

| Binder | binding result [1] | binding result (Poz1 (recombinant)) |
| --- | --- | --- |
| GST-Tpz1-CTD (Tpz1 C-terminal domain, residues 406-508) (domain or fragment) SSVISCTPPAINFTSDICNEQIELEYKRKPIPDYDFMKGLETTLQELYVEHQSKKRRLELFQLTNNHQKNSEACEMCRLGLPHGSFFELLRDWKKIEEFRNKS | binds | binds |
| GST-Tpz1-CTD L449A (domain or fragment) SSVISCTPPAINFTSDICNEQIELEYKRKPIPDYDFMKGLETTAQELYVEHQSKKRRLELFQLTNNHQKNSEACEMCRLGLPHGSFFELLRDWKKIEEFRNKS |  | binds |
| GST-Tpz1-CTD I501R (domain or fragment) SSVISCTPPAINFTSDICNEQIELEYKRKPIPDYDFMKGLETTLQELYVEHQSKKRRLELFQLTNNHQKNSEACEMCRLGLPHGSFFELLRDWKKREEFRNKS | binds |  |
